{
  "source": "paper PMC3416805",
  "molecular_target": "endogenous ASR1 from tomato fruit nuclei (tomato (endogenous in tomato fruit)) (UniProt Q08655)",
  "assay": "cross-linking; formaldehyde crosslinking of ground tomato fruit pericarp, nuclei purified, nuclear proteins passed over a Ni2+ column, SDS-PAGE and immunoblot with anti-ASR1 antiserum",
  "note": "“And” between values parts separate entries of the source, which are not always exact repeats. Identical values can stand only once.",
  "data": [
    {"substance": "endogenous ASR1 from tomato fruit nuclei (from UniProt Q08655 1-115) (natural protein)", "values": [
      {"measurement": "percent of nuclear ASR1 in a monomeric form", "result": "> 90", "unit": "%"},
      {"measurement": "stoichiometry N", "result": "2 and 3"}
    ]}
  ]
}
